T1: ASW (human, UniProt Q9BVC5 1-232, limits assumed)
T1 construct: Endogenous protein that co-purifies from cell extract
T1 sequence (looked up): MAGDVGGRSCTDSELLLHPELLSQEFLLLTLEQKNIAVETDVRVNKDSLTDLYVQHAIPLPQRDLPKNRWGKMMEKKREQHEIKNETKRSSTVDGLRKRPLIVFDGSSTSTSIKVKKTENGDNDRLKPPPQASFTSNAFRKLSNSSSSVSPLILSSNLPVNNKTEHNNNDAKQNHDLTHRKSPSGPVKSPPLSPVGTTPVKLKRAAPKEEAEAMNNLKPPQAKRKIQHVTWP

T2: DDX1 (human, UniProt Q92499 1-740)
T2 construct: Endogenous protein that co-purifies from cell extract
T2 sequence (looked up): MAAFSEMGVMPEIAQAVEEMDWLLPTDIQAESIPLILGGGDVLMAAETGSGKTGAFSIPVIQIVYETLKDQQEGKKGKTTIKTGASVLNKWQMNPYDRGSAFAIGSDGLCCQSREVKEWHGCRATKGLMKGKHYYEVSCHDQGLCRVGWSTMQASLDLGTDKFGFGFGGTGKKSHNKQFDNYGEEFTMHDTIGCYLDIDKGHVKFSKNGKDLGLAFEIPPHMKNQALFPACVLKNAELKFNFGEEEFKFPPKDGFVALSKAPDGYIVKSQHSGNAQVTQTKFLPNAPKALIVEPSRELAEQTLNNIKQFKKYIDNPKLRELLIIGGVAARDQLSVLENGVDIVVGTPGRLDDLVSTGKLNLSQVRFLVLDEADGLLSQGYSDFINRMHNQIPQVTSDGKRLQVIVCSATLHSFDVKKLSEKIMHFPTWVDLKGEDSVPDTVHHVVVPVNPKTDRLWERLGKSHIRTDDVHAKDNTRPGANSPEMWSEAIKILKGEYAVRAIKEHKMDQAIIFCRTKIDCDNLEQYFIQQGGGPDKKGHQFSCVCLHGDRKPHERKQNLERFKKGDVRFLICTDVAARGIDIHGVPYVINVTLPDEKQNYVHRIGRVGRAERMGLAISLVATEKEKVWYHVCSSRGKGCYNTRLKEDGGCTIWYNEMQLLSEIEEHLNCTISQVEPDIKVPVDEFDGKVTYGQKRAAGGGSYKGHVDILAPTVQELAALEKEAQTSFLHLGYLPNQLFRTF

T3: recombinant Archease K144A
T3 chain: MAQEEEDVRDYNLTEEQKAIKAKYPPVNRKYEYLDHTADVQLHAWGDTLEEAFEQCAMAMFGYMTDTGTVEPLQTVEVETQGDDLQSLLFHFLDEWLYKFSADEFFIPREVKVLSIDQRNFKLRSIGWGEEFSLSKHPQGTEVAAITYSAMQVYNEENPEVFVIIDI

T4: recombinant wild-type Archease
T4 chain: T3 chain with A144K

T5: recombinant Archease D39A
T5 chain: T3 chain with D39A, A144K

T6: HSPC117, Q9Y3I0
T6 chain: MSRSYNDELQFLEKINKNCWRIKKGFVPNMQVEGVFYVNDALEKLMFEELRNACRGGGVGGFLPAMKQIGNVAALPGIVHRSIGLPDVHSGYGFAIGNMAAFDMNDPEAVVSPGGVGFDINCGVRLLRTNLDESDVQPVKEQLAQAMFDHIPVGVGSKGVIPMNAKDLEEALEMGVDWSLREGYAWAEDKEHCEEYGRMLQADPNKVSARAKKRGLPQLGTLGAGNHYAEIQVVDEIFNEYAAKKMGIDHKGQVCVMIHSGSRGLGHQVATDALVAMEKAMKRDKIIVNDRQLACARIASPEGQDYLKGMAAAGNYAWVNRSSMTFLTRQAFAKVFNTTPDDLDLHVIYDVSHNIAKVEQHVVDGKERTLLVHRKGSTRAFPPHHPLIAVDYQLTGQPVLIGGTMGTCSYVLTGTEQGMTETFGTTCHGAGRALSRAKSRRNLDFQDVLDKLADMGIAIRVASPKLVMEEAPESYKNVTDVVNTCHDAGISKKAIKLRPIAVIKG

B1: Archease (other)
chain: AQEEEDVRDYNLTEEQKAIKAKYPPVNRKYEYLDHTADVQLHAWGDTLEEAFEQCAMAMFGYMTDTGTVEPLQTVEVETQGDDLQSLLFHFLDEWLYKFSADEFFIPREVKVLSIDQRNFKLRSIGWGEEFSLSKHPQGTEVKAITYSAMQVYNEENPEVFVIIDI
notes: Endogenous untagged Archease in the cells from which FLAG-HSPC117 was purified
B2: FLAG-tagged Archease (other)
chain: T3 chain with A144K
notes: also called FLAG-Archease; not shown: FLAG tag
B3: FLAG-tagged HSPC117 (enzyme, human, UniProt Q9Y3I0 1-505, looked up)
chain: T6 chain
notes: also called FLAG-HSPC117; FLAG-RTCB; not shown: FLAG tag
B4: CGI-99 (other, human, UniProt Q9Y224 1-244, looked up)
chain: MFRRKLTALDYHNPAGFNCKDETEFRNFIVWLEDQKIRHYKIEDRGNLRNIHSSDWPKFFEKYLRDVNCPFKIQDRQEAIDWLLGLAVRLEYGDNAEKYKDLVPDNSKTADNATKNAEPLINLDVNNPDFKAGVMALANLLQIQRHDDYLVMLKAIRILVQERLTQDAVAKANQTKEGLPVALDKHILGFDTGDAVLNEAAQILRLLHIEELRELQTKINEAIVAVQAIIADPKTDHRLGKVGR
notes: Endogenous protein that co-purifies from cell extract
B5: FLAG-DDX1 (protein)
chain: T2 sequence (looked up)

Where a chain is given by its changes, count along the chain named.

Series [1] deals with B3. In words: FLAG affinity purification at 150 mM NaCl, Coomassie stained gel (FIG. 4A). Here is the method: (§1) A) Coomassie Blue stained preparations of FLAG-tagged Archease and HSPC117 affinity purified at 150 mM NaCl. B) RNA ligase activity assay of FLAG-HSPC117 and FLAG-Archease using pre-cleaved tRNA substrates. Extracts of HEK 293 cells were used as a negative control. * Indicates unspecific products.
(§2) Stable cell lines expressing a FLAG-tagged version of Archease and HSPC117 were generated to perform immuno-precipitations. Fluted FLAG-Archease was assayed for tRNA ligation in parallel with FLAG-HSPC117, which contains the entire tRNA ligase complex. […] RNA ligase activity was only detectable in reactions containing affinity-purified RNA ligase complex but not FLAG-tagged Archease (FIG. 4B).

The target in series [2] is T1, ASW. The series is described as above. Here is the method:
as §1, §2

Series [3] deals with T2, DDX1. The series is described as above. Here is the method:
as §1, §2

Series [4] deals with B4. The series is described as above. Here is the method: as §1, §2
The target in series [5] is T2, DDX1. In words: FLAG affinity purification, co-purifying proteins on a gel (FIG. 1A).
Series [6] concerns the target T3, recombinant Archease K144A.
The target in series [7] is T4, recombinant wild-type Archease.
The target in series [8] is T5, recombinant Archease D39A.
Series [9] deals with B3. In words: FLAG affinity purification, co-purifying proteins on a gel (FIG. 1A).
Series [10] concerns the target T6, HSPC117, Q9Y3I0.

On to B1, for which the binding result in series [1] was “no binding”.
With B2, the binding result in series [2], in [3] and in series [4] was “no binding” in each case.
Regarding B3, the binding result in series [5] was “binds”. In addition, the “ligation of Xbp1 RNA minimal substrates” value in series [6], in series [7] and in series [8] was “Addition of recombinant wild-type Archease but not its mutagenized versions strongly stimulated ligation of Xbp1 RNA minimal substrates” each time. Besides, the “ligation activity of affinity purified human tRNA ligase complex (pre-cleaved tRNA substrates, linear intron)” value in [7] is “addition of recombinant Archease boosts ligation activity to a great extent (including circularization of the intron)”.
With B4, in series [9], the binding result was “binds”.
With B5, in series [10], the “Xbp1 ligation assay using FLAG-IPs” value is “ligation activity in FLAG-HSPC117 and FLAG-DDX1 IPs were observed”.

Values taken from patent publication US20130280763A1 (IMBA INSTITUT FUR MOLEKULARE BIOTECHNOLOGIE, published 2013).
